This note sets out measurements from paper PMC8753184.

This data set is described as follows: preparative SEC and analytical FSEC homogeneity. The settings on record: glycan lost; control: mG6PC1-WT.

B1: mouse glucose-6-phosphatase catalytic subunit 1 (mG6PC1): N96A (protein)
parent chain: MEEGMNILHDFGIQSTRYLQVNYQDSQDWFILVSVIADLRNAFYVLFPIWFHLKETVGINLLWVAVVGDWFNLVFKWILFGQRPYWWVLDTDYYSNSSVPIIKQFPVTCETGPGSPSGHAMGAAGVYYVMVTSTLAIFRGKKKPTYGFRCLNVILWLGFWAVQLNVCLSRIYLAAHFPHQVVAGVLSGIAVAETFSHIRGIYNASLRKYCLITIFLFGFALGFYLLLKGLGVDLLWTLEKAKRWCERPEWVHLDTTPFASLFKNLGTLLGLGLALNSSMYRKSCKGELSKLLPFRFACIVASLVLLHLFDSLKPPSQVELIFYILSFCKSATVPFASVSLIPYCLARILGQTHKKSL
Consider B1, for which the stability_or_folding result is given as “no change”.
